Reference: patent US7183065

Columns and labels:
[1] = molecular target: histone H1 peptide SEQ ID NO: 20 (human); assay: ELISA on coated peptide; rFab at 1.0, 3.0 and 10.0 µg/ml
[2] = molecular target: histone H1 peptide SEQ ID NO: 17 (human); assay: as above

B1: NANUC-2 (Fab)
chain 1: VKLLEQSGGGVVQPGKSLRLSCAASGFTFRNYGMHWVRQAPGKGLEWVAGISSDGRKKKYVDSVKGRFTISRDKSKNTLYLQMNSLRAEDTAVYYCAKLSRAGGFDIWGQGTMVTVSS
chain 2: AELTQSPGTLSLFPGERATLSCRASQRISTSFLAWYQQKPGQSPRLLIFDASTRAPGIPDRFSASWSGTDFTLTISRLEPEDFAVYYCQHYGGSPWTFGQGTKVEIK
Work on B1 yielded an OD405 [1] of 0.5 OD405 and an OD405 [2] of 0.25 OD405.
